Data as given in the supplement of paper PMC9170038.

Each sequence was assayed on K4 kissing-loop RNA reporter (assay: apparent KD of K4 kissing-loop reporter; higher = weaker reporter binding). Conditions: Eterna round: R107; input ligand: FMN 200 uM.
Experimental: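 RNA-MaP round R107: designed RNA switches with theophylline, tryptophan, arginine or FMN aptamers are transcribed on-chip within common flanks. They are titrated with a labelled K4 kissing-loop RNA reporter in RNA-MaP buffer (100 mM Tris pH 7.5, 80 mM KCl, 4 mM MgCl2), without ligand or with the indicated ligand. Median apparent KD per design.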
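Further: bound reporter read as fluorescence of individual clusters on recovered sequencing chips by microscopy, with normalized cluster intensities fitted with a binding model.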

| Sequence | apparent KD of K4 kissing-loop reporter |
| --- | --- |
| GAUUAAUAAGAGGAUACCAGUACUAAUAAAGUACAUUAAUAGUAGAGUGAUGUUCUAUAGUACCCUUGGCAGCUUAGAGUAAGUU [#09 K4 Theophylline B Exclusion] | 0.131 µM |
| CGUUUAUAGCAGGAUACCAGUACCCAUUAUGUACGUUAAUAGUAGAGUGAUGUUCUAAAGUACCCUUGGCAGCUUCCCGUGACCC [ExTheophylB.Y] | 0.119 µM |
| GCGCGUCAUGUCAGCGGUGACACUGUCGAUACCAGUGCCGUAAGGCGCCCUUGGCAGCGACGUGCUGGAGUGAUGUUCCAGCGUU [#2 Exclusion - Theophylline A Attempt #31 (HarryS)] | 0.143 µM |
| AAUUUACAUUAAUUAUUUAAAGGUUCAGAAGGAGCGUGAAUUAACACAGGUAGGUCGCUGAGCGAGUGAUGUUCGCUAUAUACUA [JR_ExcArginiA_Sub003] | 0.0627 µM |
| AGAUUCGACACGGCCGCCACUCGUGGAUCUUGGUUGAGAGAUGAAAUAGAGUGAUGUUCUAAUACGAGGACCGGGUGUUGAGUCU [KL-SSTryp-B23] | 0.221 µM |
| GUGUGUGAAAACACGCACUUAUAUCCUAGGCAGGAUAUGCGGAAACGCAGAAGGGCCACCGGCGAGAAAAUCCAGUGAUGUUGGA [Ex FMN A 6] | 0.281 µM |
| ACGUGCACGAGUGAUGUUUGAAAAUCUGAAGGAGCGGGCGAAAGCCCAGGUAGGUCGCAGAAUAGCACGAGCCACGAAAGUGGCA | 0.202 µM |
| UAGGAGUGAUGUUCCAUAUCUUGAGCCGAAGGAGCGCCUUUCUAGGCAGGUAGGUCGCGGCAGAAGGUACCAGUGAUGUUGGAAA [Same State Arginine A GF7] | 0.163 µM |
| UUAUAAUUCAGUGAUGUUGAAAAUAUAACAGAGGAUAUGCGUUUAAGCAGAAGGCUGAAAUACUAUACUUUAAUCUAUUAAAUUU [JR_SSFMNA_Sub019] | 0.232 µM |
| CACAGAUCCUAAGGAUAUGGAGUGAUGUUCGCAAGUUCUUGGUGUGCAUUCAUCUGUCCUAUCAACCCAGAAGGUAGGAAGUCAC [theeternabot_exclusion_KL_FMN_B_1] | 0.607 µM |
| UGUCAUUGGUCUGAUACCAGUUGAUAAACUGGAGUGAUGUUCCUCGACGAAUACGUCGACAACCCUUGGCAGCAGACCGAUGACU [TheoBS 14 #SwitchBubble 13 #StaticStem] | 0.683 µM |
| GUGAGGAUCAGAAGGAGCGUCGGCAAUCCAGUGAUGUUGGGUGUUGGUUAUAUUUAACGACGACAGGUAGGUCGCUGAUUUUCAA [Same State Arginie B GF 21] | 0.163 µM |
| UGACUACAAAAGGAAUAAUCCUAGUGAUGUUAGGAUAUGCUGAUAAGCAGAAGGAACGGAGAUCGAAGGAUCUCAUAUGUAGUCU [whbob_Ex_FMNA__2th193] | 0.17 µM |
| GUAUGUUCGAAAGAACGUACAUCUUCGGAAGGAGCGCGUGAAAACGCAGGUAGGUCGCCGAAGUUAUUAGGUAGUGAUGUUACCU [Arginine A K4 8] | 0.128 µM |
| AAAGAUCUUCUAGAAACUAGAAGAUCAAGAGAGGAUAUCCGAAUUCGGAGAAGGCUCACUAAGUGAUGUUUGGACCCAAAGGGAA [AK3 SS FMN A] | 1.46 µM |
| AGUGAUGUAUGGCGGUUUGUCACUUAUAAUCAGGAUAUAUAAACAAAUAGAAGGGAUGGCGGAGUGAUGUUCCGCCGGCCGCCAU [FMN A Exl V5] | 0.17 µM |
| AUCGUUGUCUGAGGAUAUCGGUUAUCUGUAGUGAUGUUACAGUAUAUUGAUAUUAAAGUUUCUAUUCGAGAAGGCAGACUACGUA [JR_Nu_ExcFMNB_Sub022] | 0.0714 µM |
| CAUGUGUCUAUUACGAUGGAUACAUAUACUGAGGAUAUCACAUUUAUGAGAAGGCAGUAAACUGCGAGUGAUGUUCGCAGUACGU [FMN A SS t8] | 0.159 µM |
| AUGGUAUUGCGAGGAUAUCCUUCAAACGUGACACUAACGGCAGUGAUGUUGCCGGCGUCGAUCAGAGGAGAAGGCGCGGUGUUAU [Exclusion FMN B GF 23] | 0.118 µM |
| GCCAGUGCGCGAAGGAGCGCCGUGACAGGUUACUGCCUUGGGCAGUGAUGUUGCUCAAUCUGGCAGGUAGGUCGCGUGCACUGGC | 0.212 µM |
| GUGCAGUGAUGUUGCACGAGGAAAGACGAUACCAGCCGUAAAUAUGGCCCUUGGCAGCGUGGGCUAGCACAAAAUGUGCUAGUCU [Zareatza] | 0.127 µM |
| AAACGCUUGAAUAACAAGCGAAAUAAAAUUCGAGGACCGGUACGGCCGCCACUCGGGCUAACUGCGAGUGAUGUUCGAAAAUAAA [Mat - Mod of OpenEnded 3 - D17] | 0.156 µM |
| GCCGUACGCAUGGAUACCAGUUGCGAAGUGAUGUUUCGGGCGAUCAAAGGAUCGCCAGACAACCCUUGGCAGCCAUGCGUACGGC | 0.757 µM |
| GCCGUACGCAUGGAUACCAGAGAUGUUAAUCUCGAUGCCAGUGAUGUUGGCUUUAGCUAUCUCCCUUGGCAGCCAUGCGUACGGC | 1.05 µM |
| UUAGAGAUCUCAGGAUAUCAGUGAUGUUGGUUGCCAGAUCUGAGAUAGAAUUCUAUCUCAGAUCAAUGAGAAGGGAGAUCUCAUU [AK4 Exc FMN B] | 0.501 µM |
| AUCAGUUCAGCUGAUACCAGUCAGGAGUGAUGUUCCUGCUCGCGUCAGCCGCGUCGACAAGACCCUUGGCAGCAGCUCUAAGUGU [theeternabot_exclusion_KL_Theo_B_40] | 0.114 µM |
